The text below walks through data of paper PMC2659244 (The Journal of Biological Chemistry, 2009).

To fix the notation:
B5: chicken vinculin domain 1 (residues 1-258) (domain or fragment, UniProt P12003 1-258, looked up)
chain: MPVFHTRTIESILEPVAQQISHLVIMHEEGEVDGKAIPDLTAPVSAVQAAVSNLVRVGKETVQTTEDQILKRDMPPAFIKVENACTKLVRAAQMLQADPYSVPARDYLIDGSRGILSGTSDLLLTFDEAEVRKIIRVCKGILEYLTVAEVVETMEDLVTYTKNLGPGMTKMAKMIDERQQELTHQEHRVMLVNSMNTVKELLPVLISAMKIFVTTKNTKSQGIEEALKNRNFTVEKMSAEINEIIRVLQLTSWDEDAW

The target in experiment [1] is T1, His-Avi-tagged β3-integrin tail, biotinylated (UniProt P05106 742-788, biotin (biotinylated tails, held on NeutrAvidin)).
T1 chain (looked up): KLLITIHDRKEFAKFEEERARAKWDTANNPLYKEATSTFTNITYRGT
Nature of the experiment: ELISA. (ELISA stands for enzyme-linked immunosorbent assay.)

The target of experiment [2] is T2, His-Avi-tagged β1A-integrin tail, biotinylated (UniProt P05556-1 752-798, biotin (biotinylated tails, held on NeutrAvidin)).
T2 chain (looked up): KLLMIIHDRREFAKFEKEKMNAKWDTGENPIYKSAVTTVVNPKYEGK
The experiment in a line: ELISA.

Experiment [3] has as its system β3-integrin tail. The experiment in a line: ELISA-type binding of talin polypeptides to immobilized β3-integrin tails.
In experiment [4] the target is T3, talin IBS2 polypeptide (residues 1974-2293), His tag removed (mouse, UniProt P26039 1974-2293). The experiment in a line: SEC. (Size exclusion chromatography separates by hydrodynamic size, large species first.)
Experiment [5] deals with T3, talin IBS2 polypeptide (residues …). The experiment in a line: NMR titration.
The target in experiment [6] is B5. Nature of the experiment: SEC.

The term EC50 denotes the concentration needed to bring the measured effect to its halfway point. A high value points to lower potency in that assay.

Where only a bound is given, the exact number is not on record here.

B1: talin IBS2-B (residues 2137-2293), His/V5-tagged (domain or fragment, mouse, UniProt P26039 2137-2293, looked up)
chain: DEATKGTRALEATTEHIRQELAVFCSPEPPAKTSTPEDFIRMTKGITMATAKAVAAGNSCRQEDVIATANLSRRAIADMLRACKEAAFHPEVAPDVRLRALHYGRECANGYLELLDHVLLTLQKPNPDLKQQLTGHSKRVAGSVTELIQAAEAMKGT
B1 came in with an EC50 in experiment [1] above 2500 nM.

B2: talin IBS2 polypeptide (residues 1974-2293), His/V5-tagged (domain or fragment, mouse, UniProt P26039 1974-2293, looked up)
chain: GTQACITAASAVSGIIADLDTTIMFATAGTLNREGAETFADHREGILKTAKVLVEDTKVLVQNAAGSQEKLAQAAQSSVATITRLADVVKLGAASLGAEDPETQVVLINAVKDVAKALGDLISATKAAAGKVGDDPAVWQLKNSAKVMVTNVTSLLKTVKAVEDEATKGTRALEATTEHIRQELAVFCSPEPPAKTSTPEDFIRMTKGITMATAKAVAAGNSCRQEDVIATANLSRRAIADMLRACKEAAFHPEVAPDVRLRALHYGRECANGYLELLDHVLLTLQKPNPDLKQQLTGHSKRVAGSVTELIQAAEAMKGT
On to B2, for which the EC50 in experiment [1] turned out to be 900 ± 200 nM; in experiment [2], 900 ± 100 nM.

B3: IBS2: recombinant murine talin residues 1974-2293, two five-helix bundles, integrin-binding site 2 (protein)
chain: GTQACITAASAVSGIIADLDTTIMFATAGTLNREGAETFADHREGILKTAKVLVEDTKVLVQNAAGSQEKLAQAAQSSVATITRLADVVKLGAASLGAEDPETQVVLINAVKDVAKALGDLISATKAAAGKVGDDPAVWQLKNSAKVMVTNVTSLLKTVKAVEDEATKGTRALEATTEHIRQELAVFCSPEPPAKTSTPEDFIRMTKGITMATAKAVAAGNSCRQEDVIATANLSRRAIADMLRACKEAAFHPEVAPDVRLRALHYGRECANGYLELLDHVLLTLQKPNPDLKQQLTGHSKRVAGSVTELIQAAEAMKGT
modifications: left off: His tag, N-terminal, kept | V5 epitope, N-terminal, kept
Regarding B3, the “affinity for β-integrin tails, fold weaker than binding by the talin FERM domain” value in experiment [3] is given as around 2 fold.

B4: talin rod polypeptide 1974-2541 (domain or fragment, UniProt P26039 1974-2541, looked up)
chain: GTQACITAASAVSGIIADLDTTIMFATAGTLNREGAETFADHREGILKTAKVLVEDTKVLVQNAAGSQEKLAQAAQSSVATITRLADVVKLGAASLGAEDPETQVVLINAVKDVAKALGDLISATKAAAGKVGDDPAVWQLKNSAKVMVTNVTSLLKTVKAVEDEATKGTRALEATTEHIRQELAVFCSPEPPAKTSTPEDFIRMTKGITMATAKAVAAGNSCRQEDVIATANLSRRAIADMLRACKEAAFHPEVAPDVRLRALHYGRECANGYLELLDHVLLTLQKPNPDLKQQLTGHSKRVAGSVTELIQAAEAMKGTEWVDPEDPTVIAENELLGAAAAIEAAAKKLEQLKPRAKPKEADESLNFEEQILEAAKSIAAATSALVKAASAAQRELVAQGKVGAIPANALDDGQWSQGLISAARMVAAATNNLCEAANAAVQGHASQEKLISSAKQVAASTAQLLVACKVKADQDSEAMKRLQAAGNAVKRASDNLVKAAQKAAAFEDQENETVVVKEKMVGGIAQIIAAQEEMLRKERELEEARKKLAQIRQQQYKFLPSELRDEH
B4 returned an EC50 in experiment [1] above 2500 nM.
For B5, the binding result in experiment [4] was “binds”.
On to KLLITIHDRKEFAKFEEERARAKWDTANNPLYKEATSTFTNITYRGT (peptide, UniProt P05106 742-788, looked up) [full-length β3-integrin tail peptide (residues 716-762)], for which the binding result in experiment [5] is given as “binds”.

B6: talin IBS2-A (residues 1974-2140), His/V5-tagged (domain or fragment, mouse, UniProt P26039 1974-2140, looked up)
chain: GTQACITAASAVSGIIADLDTTIMFATAGTLNREGAETFADHREGILKTAKVLVEDTKVLVQNAAGSQEKLAQAAQSSVATITRLADVVKLGAASLGAEDPETQVVLINAVKDVAKALGDLISATKAAAGKVGDDPAVWQLKNSAKVMVTNVTSLLKTVKAVEDEAT
B6 gave an EC50 in experiment [1] above 2500 nM.

B7: talin IBS2-A (residues 1974-2140), His tag removed (domain or fragment, mouse, UniProt P26039 1974-2140, looked up)
chain: GTQACITAASAVSGIIADLDTTIMFATAGTLNREGAETFADHREGILKTAKVLVEDTKVLVQNAAGSQEKLAQAAQSSVATITRLADVVKLGAASLGAEDPETQVVLINAVKDVAKALGDLISATKAAAGKVGDDPAVWQLKNSAKVMVTNVTSLLKTVKAVEDEAT
As to B7, in experiment [6], the binding result is reported as “binds”.
